{"source": "patent US20230265458A1", "key": {"[1]": {"molecular_target": "human CD19 (hCD19, hCD19 variant 2), expressed on U87MG cells from the sRRVe-F4-hCD19 vector (human) (UniProt P15391)", "assay": "cell-based or functional assay"}, "[2]": {"molecular_target": "truncated human CD19 (hCD19t, CD19t), 323 amino acids, 233 amino acids of the cytoplasmic domain removed (human) (UniProt P15391)", "assay": "cell-based or functional assay"}}, "data": [{"substance": "anti-CD19 CAR-T (chimeric antigen receptor against CD19 on T cells)", "values": [{"measurement": "decrease in cell viability, WST-1 assay, E:T ratio 0.5:1, first day; U87MG cells transfected with sRRVgp-F4-DsRed/sRRVe-F4-hCD19", "setting": "[1]", "result": 54.9, "unit": "%"}, {"measurement": "decrease in cell viability, WST-1 assay, E:T ratio 1:1, within 1 day; U87MG cells transfected with sRRVgp-F4-DsRed/sRRVe-F4-hCD19", "setting": "[1]", "result": 25.8, "unit": "%"}, {"measurement": "decrease in cell viability, WST-1 assay, E:T ratio 0.5:1, first day; U87MG cells transfected with sRRVgp-F4-hCD19t/sRRVe-F4-TK", "setting": "[2]", "result": 54.3, "unit": "%"}, {"measurement": "decrease in cell viability, WST-1 assay, E:T ratio 0.5:1, first day; U87MG cells transfected with sRRVgp-F4-yCD/sRRVe-F4-hCD19t", "setting": "[2]", "result": 58.2, "unit": "%"}, {"measurement": "decrease in cell viability, WST-1 assay, E:T ratio 1:1, within 1 day; U87MG cells transfected with sRRVgp-F4-hCD19t/sRRVe-F4-TK", "setting": "[2]", "result": 24.8, "unit": "%"}, {"measurement": "decrease in cell viability, WST-1 assay, E:T ratio 1:1, within 1 day; U87MG cells transfected with sRRVgp-F4-yCD/sRRVe-F4-hCD19t", "setting": "[2]", "result": 20, "unit": "%"}]}]}
